This data set in a line: Foaming of eye drop solution containing a foaming agent mixed with gas. Type of data set: physicochemical. The text has this:
The preferred embodiment is a solution containing between 0.25%-5% of hydroxypropyl methylcellulose. This has been proven to produce a foam that is capable of holding enough gas to result in a 90% reduction in volume of the medication distributed in a drop. In other words the foam that is created is 90% gas and 10% liquid. The addition of hydroxypropyl methylcellulose is one of many ways that the pharmaceutical composition of the eye medication can be changed.
Any preferred additive should have properties similar to hydroxypropyl methylcellulose such that a large reduction in volume of liquid from the foamed form to the liquid form is obtained. The additive should be chosen to reduce the risk of eye irritation and to minimize any potential binding of the active ingredient. Hydroxypropyl methylcellulose is especially preferred because it is already known to be a safe ingredient to be applied to the eye as it is currently used in many eye drops to lubricate the eye. It also produces a more viscous solution which increases the retention time in the eye, thus giving the medication more time to be absorbed.

With albumin, for the setting “albumin concentration between 1%-25%”, the “consistency of foam produced” value is given as “foam of the desired consistency”. In addition, the foaming agent quality entry (tested as foaming agent) is “excellent foaming agent”.

The values are drawn from US20140369997A1, “Pharmaceutical composition for a foaming eye drop” (PASE, priority 2011, published 2014).
